Values joined by “and” are separate entries in the source; they are usually repeats but may differ in a detail not shown here. Equal entries are not always repeated.
B1: WNVB7 0008 (peptide)
chain: IPAGFEPEML
B2: WNVB7 0009 (peptide)
chain: TPAAPSYTLK
B3: WNVB7 0010 (peptide)
chain: VPCRGQDELV
B4: WNVB7 0011 (peptide)
chain: GPGHEEPQLV
B5: WNVB7 0013 (peptide)
chain: EPPEGVKYVL
B6: WNVB7 0015 (peptide)
chain: KPTGSASSLV
B7: WNVB7 0017 (peptide)
chain: RPRWIDARVY
B8: WNVB7 0018 (peptide)
chain: VPGTKIAGML
B9: WNVB7 0019 (peptide)
chain: RPQRHDEKTL
B10: WNVB7 0020 (peptide)
chain: SPHRVPNYNL
B11: WNVB7 0023 (peptide)
chain: RPAADGRTVM
B12: WNVB7 0024 (peptide)
chain: TPGLRCLNLD
B13: WNVB7 3399 (peptide)
chain: PEDIDCWCTK
B14: WNVB7 3403 (peptide)
chain: PETPQGLAKI

target: HLA B*07 (human); experiment: T2B7 HLA stabilisation assay, flow cytometry, peptide at 200 ug/ml; conditions: not given

Point of comparison: B13, Avg. Fold Inc. @ 200 (fold over background) 1.1. Against it:
- B1 — higher, 1.9
- B2 — higher, 1.5
- B3 — lower, 1
- B4 — lower, 1
- B5 — the same, 1.1
- B6 — higher, 1.7
- B7 — higher, 1.9
- B8 — higher, 1.7
- B9 — higher, 2.8
- B10 — higher, 2.5
- B11 — higher, 1.5
- B12 — lower, 1
- B14 — lower, 1

Point of comparison: B3, Avg. MFI 200 659 MFI. Against it:
- B1 — higher, 1210 MFI
- B2 — higher, 954 MFI
- B4 — higher, 849 MFI
- B5 — higher, 682 MFI
- B6 — higher, 1070 MFI
- B7 — higher, 1710 MFI
- B8 — higher, 1090 MFI
- B9 — higher, 1640 MFI
- B10 — higher, 1610 MFI
- B11 — higher, 979 MFI
- B12 — higher, 850 MFI
- B13 — higher, 990 MFI
- B14 — lower, 589 MFI

target: HLA B*07 (human); experiment: T2B7 HLA stabilisation assay, flow cytometry, 10/20/200 ug/ml, four assays; conditions: not given

Point of comparison: B6, Binding number (binding score) 6. Against it:
- B1 — higher, 10
- B2 — higher, 8
- B3 — lower, 4
- B4 — lower, 2
- B5 — the same, 6
- B7 — higher, 11
- B8 — the same, 6
- B9 — higher, 11
- B10 — higher, 12
- B11 — higher, 12
- B12 — lower, 2
- B13 — lower, 1
- B14 — lower, 0

Point of comparison: B7, Binding results (total of four assays) (of 3 concentrations positive, in 1 assay) 2. Against it:
- B1 — lower, 1
- B4 — the same, 2
- B9 — the same, 2
- B13 — lower, 1

With B2 the Binding results (total of four assays) (of 3 concentrations positive, in 1 assay) was 3 and 1.
For B5, the Binding results (total of four assays) (of 3 concentrations positive, in 1 assay) was 3 and 2 and 1.
For B8, the Binding results (total of four assays) (of 3 concentrations positive, in 1 assay) was 3 and 2.

same assay, conditions: scale: of 3 concentrations positive, in 2 assays

Point of comparison: B3, Binding results (total of four assays) 2. Against it:
- B2 — the same, 2
- B8 — lower, 1
- B12 — lower, 1

B6 was tested, and the Binding results (total of four assays) was 2 and 1.

same assay, conditions: scale: of 3 concentrations positive, in 3 assays

Point of comparison: B1, Binding results (total of four assays) 3. Against it:
- B7 — the same, 3
- B9 — the same, 3

same assay, conditions: scale: of 3 concentrations positive, in 4 assays

Point of comparison: B11, Binding results (total of four assays) 3. Against it:
- B10 — the same, 3
- B14 — lower, 0

Source: patent publication US20050048073A1, “Methods of determining west nile virus epitopes and method of using the same” (priority 2001, published 2005)
